The results in this text go back to patent publication EP3069729A1 (Sequoia Sciences, Inc., dated 2016).

For this assay, the target named is T1, horseradish peroxidase (HRP) (UniProt P00433 31-338).
T1 sequence: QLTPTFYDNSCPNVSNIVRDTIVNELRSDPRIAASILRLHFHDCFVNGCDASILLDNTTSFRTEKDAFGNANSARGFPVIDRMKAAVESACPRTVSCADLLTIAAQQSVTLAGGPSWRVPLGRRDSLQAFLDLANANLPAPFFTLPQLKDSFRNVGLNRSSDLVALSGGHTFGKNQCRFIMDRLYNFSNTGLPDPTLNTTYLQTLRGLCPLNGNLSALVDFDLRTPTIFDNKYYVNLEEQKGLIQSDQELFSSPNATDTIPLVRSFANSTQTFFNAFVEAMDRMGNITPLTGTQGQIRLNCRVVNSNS
Kind of assay: in vitro mannose binding potency assay; inferred from the Q133K FimCH complex.

B1: FimC (other)
chain: GVALGATRVIYPAGQKQVQLAVTNNDENSTYLIQSWVENADGVKDGRFIVTPPLFAMKGKKENTLRILDATNNQLPQDRESLFWMNVKAIPSMDKSKLTENTLQLAIISRIKLYYRPAKLALPPDQAAEKLRFRRSANSLTLINPTPYYLTVTELNAGTRVLENALVPPMGESAVKLPSDAGSNITYRTINDYGALTPKMTGVME
notes: also called FimC protein
Take B1: the binding result was “no binding”.
